For test [1], the target named is CR1 CCP22-30 (Homo sapiens) (UniProt P17927). Briefly: SPR. The conditions noted are these: cited from earlier work.
Test [2] addresses CR1 soluble CR1 (Homo sapiens) (UniProt P17927). The test can be described thus: SPR. The conditions noted are these: cited from earlier work.
Test [3] addresses CR1 bimodular fragment CCP24-25 His6 (human). The test can be described thus: SPR; BIAcore 3000, multiple cycle; CCP24-25 amine-coupled on CM5 (1,000 RU); MBL injected at 20 µl/min in buffer with 3 mM EDTA (methods: HBS-P; legend of Figure 4: 50 mM TEA, 145 mM NaCl, 0.05% P20, pH 7.4); global 1:1 Langmuir fit; apparent KD = kd/ka. On the technique in general: In SPR one partner is held on a chip, and binding of the other changes the refractive index at the surface.

Chain of MBL (P11226 21-248): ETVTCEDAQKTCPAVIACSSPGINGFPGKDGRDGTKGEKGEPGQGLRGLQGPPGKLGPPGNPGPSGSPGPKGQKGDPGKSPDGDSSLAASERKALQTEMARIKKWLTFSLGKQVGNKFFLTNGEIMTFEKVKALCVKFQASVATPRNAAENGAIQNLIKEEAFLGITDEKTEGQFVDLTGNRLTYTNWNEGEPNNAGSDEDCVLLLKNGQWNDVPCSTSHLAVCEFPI

MBL (from UniProt P11226): the Kd is 0.37 nM in test [1] and 0.76 nM in test [2].
In general, koff refers to the first-order rate constant of dissociation. On to “Recombinant mannose-binding lectin (MBL) (from UniProt P11226 21-248) (natural protein)”, for which, in test [3], the Kd was 0.65 nM and the koff was determined as 0.00109 s⁻¹.

(Values after article PMC5845983.)
